Experiment [1] has as its target carrier-free recombinant human TGF-β1 (human). The experiment in a line: in vitro binding, RP-HPLC, TGF-β1 quantified by ALP-inducing activity of HPDL cells; purified amelogenin mixed with CF-hTGF-β1 or rh-latent TGF-β1, fractions from RP-HPLC tested in the ALP-HPDL system; ng per mg of amelogenin calculated from standard CF-hTGF-β1 (0.3 ng mL^-1), after dilution correction; details in the Supplementary Methods.

Experiment [2] addresses TGF-β1 of the porcine enamel matrix (porcine (endogenous in porcine enamel)). Description: co-elution on RP-HPLC, TGF-β1 quantified by ALP-inducing activity of HPDL cells; amelogenins as purified from enamel (before the in vitro binding); ng of TGF-β1 per mg of amelogenin calculated from standard CF-hTGF-β1 (0.3 ng mL^-1), after dilution correction; complexes formed in vivo.

Experiment [3] concerns the target TGFBR1 of porcine enamel organ epithelia (porcine (endogenous in enamel organ epithelia)) (UniProt Q5CD18).
For experiment [4], the target named is TGF-β1 of the porcine enamel matrix (porcine (endogenous in porcine enamel)). The experiment in a line: dynamic light scattering; multi-angle DLS, 25.0 °C, Tris; original (TGF-β1-bound) P103 amelogenin at c > 6.0 mg mL^-1 (Line 1), D extrapolated to D0; RH 3.21 nm, Mw from an empirical RH-Mw relation; complex formed in vivo.
Chain of TGF-β1 of the porcine enamel matrix (porcine (endogenous in porcine enamel)) (P07200 30-390): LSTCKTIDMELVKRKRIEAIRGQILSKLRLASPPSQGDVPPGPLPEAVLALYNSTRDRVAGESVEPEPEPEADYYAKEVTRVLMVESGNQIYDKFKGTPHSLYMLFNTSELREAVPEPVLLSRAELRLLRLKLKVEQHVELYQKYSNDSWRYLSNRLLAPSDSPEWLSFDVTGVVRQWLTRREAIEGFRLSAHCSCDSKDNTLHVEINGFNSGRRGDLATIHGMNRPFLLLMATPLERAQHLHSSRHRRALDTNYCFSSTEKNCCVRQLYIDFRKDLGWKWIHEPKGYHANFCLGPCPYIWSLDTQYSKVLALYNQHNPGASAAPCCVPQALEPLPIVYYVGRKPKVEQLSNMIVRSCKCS
The target is the same in experiment [5].
Experiment [6] has as its target P103 amelogenin (porcine). Description: dynamic light scattering; multi-angle DLS, 25.0 °C, Tris; D extrapolated to zero concentration (D0), RH by Stokes-Einstein, Mw from an empirical RH-Mw relation; P103-1 and P103-2 amelogenins and original P103 amelogenin at c < 4.0 mg mL^-1; RH 2.57 nm.

Chain of TGFBR1 of porcine enamel organ epithelia (porcine (endogenous in enamel organ epithelia)) (Q5CD18 30-503): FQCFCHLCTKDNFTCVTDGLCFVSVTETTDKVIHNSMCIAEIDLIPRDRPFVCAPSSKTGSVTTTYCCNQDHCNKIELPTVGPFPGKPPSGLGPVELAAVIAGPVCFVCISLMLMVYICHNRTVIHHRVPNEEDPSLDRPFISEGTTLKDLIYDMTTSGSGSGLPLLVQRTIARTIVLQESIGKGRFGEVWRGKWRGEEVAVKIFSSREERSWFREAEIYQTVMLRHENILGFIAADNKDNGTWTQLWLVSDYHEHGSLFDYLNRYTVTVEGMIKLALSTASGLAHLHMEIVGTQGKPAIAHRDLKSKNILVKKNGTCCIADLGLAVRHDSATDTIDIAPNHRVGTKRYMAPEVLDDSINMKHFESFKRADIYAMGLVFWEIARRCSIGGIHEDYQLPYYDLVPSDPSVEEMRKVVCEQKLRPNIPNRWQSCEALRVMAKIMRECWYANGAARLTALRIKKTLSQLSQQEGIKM
Chain of P103 amelogenin-TGF-β1 complex (P07200 whole entry, looked up, one chain of several): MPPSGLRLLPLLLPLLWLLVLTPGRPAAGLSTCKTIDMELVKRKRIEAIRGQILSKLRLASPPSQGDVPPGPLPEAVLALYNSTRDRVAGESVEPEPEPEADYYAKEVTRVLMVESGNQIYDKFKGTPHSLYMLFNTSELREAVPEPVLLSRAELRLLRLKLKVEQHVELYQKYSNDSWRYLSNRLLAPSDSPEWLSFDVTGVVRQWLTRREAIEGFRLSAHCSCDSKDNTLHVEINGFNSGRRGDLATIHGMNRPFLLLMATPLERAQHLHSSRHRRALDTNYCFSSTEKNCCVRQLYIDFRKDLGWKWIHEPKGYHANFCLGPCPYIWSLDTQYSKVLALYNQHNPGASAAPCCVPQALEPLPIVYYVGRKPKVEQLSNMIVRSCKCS

Take P148 amelogenin (domain or fragment): in experiment [1], the bound TGF-β1, ng against 1 mg of amelogenin was 1.06 ng. Further, the original TGF-β1, ng against 1 mg of amelogenin in experiment [2] was 0.263 ng.
Consider “P103 amelogenin-TGF-β1 complex (from UniProt P07200 279-390)”, for which the TR-FRET TGFBR1 kinase assay (phosphorylation of ULight-Topo IIα peptide, 5 mM ATP), FRET signal after 12 h with the complex added, against the control without addition (% higher than the control) in experiment [3] worked out at 5.
With P162 amelogenin (domain or fragment), the bound TGF-β1, ng against 1 mg of amelogenin in experiment [1] was 1.17 ng. Also, the original TGF-β1, ng against 1 mg of amelogenin in experiment [2] is 0.201 ng.
For orientation: stoichiometry N means a count of units in the complex or per binding partner. For the substance P103 amelogenin (domain or fragment), in experiment [1], the bound TGF-β1, ng against 1 mg of amelogenin was 1.08 ng. Besides, in experiment [4], the stoichiometry N (amelogenin trimer per TGF-β homodimer) is 1. The ALP-inducing activity of HPDL cells left after digestion of the P103 amelogenin-TGF-β1 complex with pKLK4 for 20 h, compared to the level before digestion (CF-hTGF-β1 alone: 8%) in experiment [5] was determined as 70%. The original TGF-β1, ng against 1 mg of amelogenin in experiment [2] was 0.797 ng. Moreover, in experiment [6], the stoichiometry N was 3.

Source of the values: PMC5025654.
